# Data: PMC3554717 (2013)
# B1: LYP tagged with the myc epitope, Arg620 variant (myc-LYPR) [human] / HA-CSK [not stated] (parent complex)
# chain 1: MDQREILQKFLDEAQSKKITKEEFANEFLKLKRQSTKYKADKTYPTTVAEKPKNIKKNRYKDILPYDYSRVELSLITSDEDSSYINANFIKGVYGPKAYIATQGPLSTTLLDFWRMIWEYSVLIIVMACMEYEMGKKKCERYWAEPGEMQLEFGPFSVSCEAEKRKSDYIIRTLKVKFNSETRTIYQFHYKNWPDHDVPSSIDPILELIWDVRCYQEDDSVPICIHCSAGCGRTGVICAIDYTWMLLKDGIIPENFSVFSLIREMRTQRPSLVQTQEQYELVYNAVLELFKRQMDVIRDKHSGTESQAKHCIPEKNHTLQADSYSPNLPKSTTKAAKMMNQQRTKMEIKESSSFDFRTSEISAKEELVLHPAKSSTSFDFLELNYSFDKNADTTMKWQTKAFPIVGEPLQKHQSLDLGSLLFEGCSNSKPVNAAGRYFNSKVPITRTKSTPFELIQQRETKEVDSKENFSYLESQPHDSCFVEMQAQKVMHVSSAELNYSLPYDSKHQIRNASNVKHHDSSALGVYSYIPLVENPYFSSWPPSGTSSKMSLDLPEKQDGTVFPSSLLPTSSTSLFSYYNSHDSLSLNSPTNISSLLNQESAVLATAPRIDDEIPPPLPVRTPESFIVVEEAGEFSPNVPKSLSSAVKVKIGTSLEWGGTSEPKKFDDSVILRPSKSVKLRSPKSELHQDRSSPPPPLPERTLESFFLADEDCMQAQSIETYSTSYPDTMENSTSSKQTLKTPGKSFTRSKSLKILRNMKKSICNSCPPNKPAESVQSNNSSSFLNFGFANRFSKPKGPRNPPPTWNI
# chain 2: MSAIQAAWPSGTECIAKYNFHGTAEQDLPFCKGDVLTIVAVTKDPNWYKAKNKVGREGIIPANYVQKREGVKAGTKLSLMPWFHGKITREQAERLLYPPETGLFLVRESTNYPGDYTLCVSCDGKVEHYRIMYHASKLSIDEEVYFENLMQLVEHYTSDADGLCTRLIKPKVMEGTVAAQDEFYRSGWALNMKELKLLQTIGKGEFGDVMLGDYRGNKVAVKCIKNDATAQAFLAEASVMTQLRHSNLVQLLGVIVEEKGGLYIVTEYMAKGSLVDYLRSRGRSVLGGDCLLKFSLDVCEAMEYLEGNNFVHRDLAARNVLVSEDNVAKVSDFGLTKEASSTQDTGKLPVKWTAPEALREKKFSTKSDVWSFGILLWEIYSFGRVPYPRIPLKDVVPRVEKGYKMDAPDGCPPAVYEVMKNCWHLDAAMRPSFLQLREQLEHIKTHELHL
# Variants of: B1
# Assay: co-immunoprecipitation (IP anti-myc, IB HA), blot densitometry; transfected HEK293 cells; parent: 48.1
row,Variant,response [arbitrary units]
1,chain 1 R620W,18
2,"chain 1 P615A, chain 1 P618A, chain 1 P695A",0.77
3,chain 1 P695A,23.3
4,"chain 1 P615A, chain 1 P618A",10.3
5,"chain 1 R620W, chain 1 P695A",0.07

# Variants of: B1
# Assay: co-immunoprecipitation (IP anti-myc, IB HA), blot densitometry; transiently transfected HEK293 cells; pEF empty-vector lane 3.67; parent: 57.8
row,Variant,response [arbitrary units]
1,chain 1 R620W,19.5
2,"chain 1 I626A, chain 1 V627A",19.1

# Variants of: B1
# Assay: co-immunoprecipitation (IP anti-myc, IB HA), blot densitometry; HEK293 cells; parent: 64.8
row,Variant,response [arbitrary units]
1,chain 1 R620F,5.2
2,chain 1 R700F,30
3,"chain 1 R620F, chain 1 R700F",0.03
